Values belong to the substance of their own block, whether it stands above or below them.
How the values were obtained:
[1] = biological target: recombinant UBE3A protein (Homo sapiens (Human)) (UniProt Q05086); assay: Simoa; capture GTX; 3E5 0.4 ug/ml; UBE3A 0.00128 ng/ml
[2] = biological target: recombinant UBE3A protein (Homo sapiens (Human)) (UniProt Q05086); assay: Simoa; capture GTX; 3E5 0.8 ug/ml; UBE3A 0.160 ng/ml
[3] = biological target: recombinant UBE3A protein (Homo sapiens (Human)) (UniProt Q05086); assay: Simoa; capture GTX + helper beads; 3E5 0.2 ug/ml; UBE3A 0.00640 ng/ml
[4] = biological target: recombinant UBE3A protein (Homo sapiens (Human)) (UniProt Q05086); assay: Simoa; capture GTX; 3E5 0.4 ug/ml; UBE3A 0.800 ng/ml
[5] = biological target: recombinant UBE3A protein (Homo sapiens (Human)) (UniProt Q05086); assay: Simoa; capture GTX + helper beads; 3E5 0.4 ug/ml; UBE3A 20.0 ng/ml
[6] = biological target: recombinant UBE3A protein (Homo sapiens (Human)) (UniProt Q05086); assay: Simoa; capture GTX; 3E5 0.2 ug/ml; UBE3A 0.0320 ng/ml
[7] = biological target: recombinant UBE3A protein (Homo sapiens (Human)) (UniProt Q05086); assay: Simoa; capture GTX + helper beads; 3E5 0.4 ug/ml; UBE3A 0.160 ng/ml
[8] = biological target: recombinant UBE3A protein (Homo sapiens (Human)) (UniProt Q05086); assay: Simoa head-to-head, Table 11; capture MS 2F6; UBE3A 500 ng/ml
[9] = biological target: recombinant UBE3A protein (Homo sapiens (Human)) (UniProt Q05086); assay: Simoa head-to-head, Table 11; capture MS 2F6; UBE3A 100 ng/ml
[10] = biological target: recombinant UBE3A protein (Homo sapiens (Human)) (UniProt Q05086); assay: Simoa; capture GTX, no helper beads; 3E5 0.4 ug/ml; UBE3A 0.160 ng/ml
[11] = biological target: recombinant UBE3A protein (Homo sapiens (Human)) (UniProt Q05086); assay: Simoa; capture GTX, no helper beads; 3E5 0.1 ug/ml; UBE3A 0.800 ng/ml
[12] = biological target: recombinant UBE3A protein (Homo sapiens (Human)) (UniProt Q05086); assay: 3-step Simoa, 120 min bead step; capture GTX; UBE3A 100 ng/ml
[13] = biological target: recombinant UBE3A protein (Homo sapiens (Human)) (UniProt Q05086); assay: Simoa head-to-head, Table 10; capture MS 2F6; UBE3A 0.032 ng/ml
[14] = biological target: recombinant UBE3A protein (Homo sapiens (Human)) (UniProt Q05086); assay: Simoa; capture GTX + helper beads; 3E5 0.1 ug/ml; UBE3A 0.160 ng/ml
[15] = biological target: recombinant UBE3A protein (Homo sapiens (Human)) (UniProt Q05086); assay: Simoa; capture GTX + helper beads; 3E5 0.1 ug/ml; UBE3A 0.0320 ng/ml
[16] = biological target: recombinant UBE3A protein (Homo sapiens (Human)) (UniProt Q05086); assay: Simoa; capture GTX; SBG 100 pm; UBE3A 4.00 ng/ml
[17] = biological target: recombinant UBE3A protein (Homo sapiens (Human)) (UniProt Q05086); assay: Simoa; capture GTX + helper beads; 3E5 0.2 ug/ml; UBE3A 4.00 ng/ml
[18] = biological target: recombinant UBE3A protein (Homo sapiens (Human)) (UniProt Q05086); assay: Simoa; capture GTX, no helper beads; 3E5 0.2 ug/ml; UBE3A 0.00128 ng/ml
[19] = biological target: recombinant UBE3A protein (Homo sapiens (Human)) (UniProt Q05086); assay: Simoa; capture GTX, no helper beads; 3E5 0.4 ug/ml; UBE3A 4.00 ng/ml
[20] = biological target: recombinant UBE3A protein (Homo sapiens (Human)) (UniProt Q05086); assay: 3-step Simoa; capture GTX; UBE3A 125 ng/ml

UniProt Q05086, sequence (Q05086 whole entry): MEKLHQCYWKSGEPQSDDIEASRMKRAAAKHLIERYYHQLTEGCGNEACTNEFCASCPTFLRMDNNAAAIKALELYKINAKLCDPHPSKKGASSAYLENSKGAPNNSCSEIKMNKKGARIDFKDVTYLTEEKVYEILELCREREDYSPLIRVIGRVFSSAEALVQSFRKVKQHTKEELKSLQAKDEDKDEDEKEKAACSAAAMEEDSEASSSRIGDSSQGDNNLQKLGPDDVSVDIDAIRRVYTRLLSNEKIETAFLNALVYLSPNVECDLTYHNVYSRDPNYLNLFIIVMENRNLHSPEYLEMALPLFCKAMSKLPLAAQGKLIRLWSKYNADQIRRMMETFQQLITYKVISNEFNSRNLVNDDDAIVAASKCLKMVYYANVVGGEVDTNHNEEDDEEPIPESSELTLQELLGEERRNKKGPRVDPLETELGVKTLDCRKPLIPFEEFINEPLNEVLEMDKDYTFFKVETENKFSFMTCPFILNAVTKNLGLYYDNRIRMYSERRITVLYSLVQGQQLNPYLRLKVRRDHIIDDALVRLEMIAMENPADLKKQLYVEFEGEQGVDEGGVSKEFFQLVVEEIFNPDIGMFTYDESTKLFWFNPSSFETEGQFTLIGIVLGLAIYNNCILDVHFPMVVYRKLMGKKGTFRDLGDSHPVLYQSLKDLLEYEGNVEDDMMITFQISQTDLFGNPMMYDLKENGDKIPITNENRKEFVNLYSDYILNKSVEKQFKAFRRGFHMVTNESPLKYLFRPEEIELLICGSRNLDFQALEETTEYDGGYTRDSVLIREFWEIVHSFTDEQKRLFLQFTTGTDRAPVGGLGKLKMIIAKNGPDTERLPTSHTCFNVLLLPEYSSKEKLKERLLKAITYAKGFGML

AEB1 [1]: 0.0769
AEB2 [1]: 0.072
AEB3 [1]: 0.0724
Average AEB [1]: 0.0738
Signal to Background [1]: 1.18
AEB1 [2]: 0.235
AEB2 [2]: 0.263
AEB3 [2]: 0.226
Average AEB [2]: 0.241
Signal to Background [2]: 1.97
AEB1 [3]: 0.0133
AEB2 [3]: 0.0127
Average AEB [3]: 0.013
Signal to Background [3]: 1.34
AEB1 [4]: 0.509
AEB2 [4]: 0.48
AEB3 [4]: 0.478
Average AEB [4]: 0.489
Signal to Background [4]: 7.81
AEB1 [5]: 4.41
AEB2 [5]: 6.45
Average AEB [5]: 5.43
Signal to Background [5]: 278
AEB1 [6]: 0.0619
AEB2 [6]: 0.0621
AEB3 [6]: 0.0587
Average AEB [6]: 0.0609
Signal to Background [6]: 1.55
AEB1 [7]: 0.0913
AEB2 [7]: 0.105
Average AEB [7]: 0.0983
Signal to Background [7]: 5.03
AEB1 [8]: 8.9
AEB2 [8]: 8.6
Ave AEB [8]: 8.75
Signal to Background [8]: 2310
AEB1 [9]: 1.79
AEB2 [9]: 1.84
Ave AEB [9]: 1.81
Signal to Background [9]: 479
AEB1 [10]: 0.1
AEB2 [10]: 0.108
Average AEB [10]: 0.104
Signal to Background [10]: 5.33
AEB1 [11]: 0.164
AEB2 [11]: 0.157
Average AEB [11]: 0.16
Signal to Background [11]: 27.9
AEB1 [12]: 7.86
AEB2 [12]: 8.12
Ave AEB [12]: 7.99
Signal to Background [12]: 4690
AEB1 [13]: 0.0162
AEB2 [13]: 0.0146
Ave AEB [13]: 0.0154
Signal to Background [13]: 1.14
AEB1 [14]: 0.0417
AEB2 [14]: 0.0425
Average AEB [14]: 0.0421
Signal to Background [14]: 7.34
AEB1 [15]: 0.0159
AEB2 [15]: 0.0108
Average AEB [15]: 0.0134
Signal to Background [15]: 2.33
AEB1 [16]: 0.739
AEB2 [16]: 0.78
AEB3 [16]: 0.707
Average AEB [16]: 0.742
Signal to Background [16]: 88.5
AEB1 [17]: 0.892
AEB2 [17]: 0.846
Average AEB [17]: 0.869
Signal to Background [17]: 89.8
AEB1 [18]: 0.0099
AEB2 [18]: 0.0139
Average AEB [18]: 0.0119
Signal to Background [18]: 1.23
AEB1 [19]: 1.1
AEB2 [19]: 1.11
Average AEB [19]: 1.11
Signal to Background [19]: 56.7
Substance: anti-UBE3A antibody 3E5 (SAB1404508-100 ug, Millipore-Sigma)

AEB1 [20]: 0.122
AEB2 [20]: 0.122
Ave AEB [20]: 0.122
Signal to Background [20]: 55.8
Substance: NB500-240 (Novus) (antibody)
